Data on one substance can be found in patent US20210054047A1, “NOVEL ANTICANCER FUSION PROTEIN AND USE THEREOF” (KOREA INSTITUTE OF SCIENCE AND TECHNOLOGY, priority 2018, published 2021).

One data set has as its target T1, DR4 (Homo sapiens, UniProt O00220).
T1 construct: purchased R&D systems 347-DR-100
Put plainly: SPR binding to immobilized DR4-Fc. As for the experimental part:
(§1) Binding experiments of TTPN and mTRAIL to TRAIL receptors DR4 and DR5 were analyzed at 25° C. using a surface plasmon resonance apparatus (SR7500 DC, Reichert Inc., NY, USA). DR4 and DR5-fc chimeric proteins (R&D systems 347-DR-100, 631-T2-100) were immobilized on the surface of the Planar Protein A sensor chip (Reichert, 13206069) and the receptors were coated at a level of 300 to 500 resonance units. SPR kinetic titrations were performed by adding 250 μl of TTPN and mTRAIL with different concentrations in the range of 1.56 to 400 nM and 0.1 to 25.6 μM, respectively, increasing by four times. Each analyte was run at 50 μL/min using running and sample buffer (0.5 M Tris-HCl (pH 7.4), 150 mM NaCl, 0.005% Tween 20), and binding of the ligand to the receptor was performed and monitored in real time. For titration sensorgrams, a simple 1:1 Langmuir interaction model (A+B↔AB) was applied using the data analysis program Scrubber 2.0 (BioLogic Software, Australia, and KaleidaGraph Software, Australia) and CLAMP software.
(§2) The affinity KD was determined from the formula of KD=kd/ka. Results are based on representative sensorgrams obtained from saturation binding reactions averaged over at least three independent runs of SPR measurements (FIG. 31).

Another data set concerns HT29 cells. Nature of the data set: Annexin V early apoptosis flow cytometry, HT29. The data set is classed as cell-based, human. To be noted: HT29, low concentrations, 24 hours. As for the experimental part: HepG2, HT29, or MCF7 cells (1.5×10^4) were cultured in a 96-well plate for 1 day, after which DOX-TTPNs, DOX-FTNs, free DOX, empty TTPNs, or buffer was added to each well. After 24 hours, cell viability was measured using a CCK-8 assay (Dojindo Molecular Technologies) according to the manufacturer's instructions. For analysis of early apoptosis, HT29 cells in 6-18 well culture plate were treated with DOX-TTPNs, free DOX, empty TTPNs, or buffer for 24 hours. Thereafter, cells were incubated with Alexa Fluor 488-conjugated annexin V (Invitrogen) 20 for 15 minutes, then analyzed using an Accuri™ C6 flow cytometer (BD Biosciences) and FlowJo 21 v10 software.

A further data set has as its system HepG2 tumor. Put plainly: TUNEL analysis of HepG2 tumor tissue. Type of data set: in vivo, mouse. The following applies: 15th day after first injection. The source says:
In the evaluation of the anti-tumor effect of the present invention, BALB/c nude male mice (6-7 weeks old) were used as an animal model. Particularly, HT29 cells (5×10^6) and HepG2 cells (5×10^6) were subcutaneously inoculated into the left dorsal flank of BALB/c nude mice, respectively. After a volume of tumors reached ˜80-100 mm^3, mice were randomly divided into the 14 following five treatment groups (6 mice/group); DOX-TTPNs, DOX-FTNs, free DOX, empty TTPNs, and buffer. Mice were intravenously injected five times, once every 2 days, and volume of tumors was determined as 1/2(Length×Width^2). Apoptotic cell death in tumor tissues was analyzed using TUNEL staining (In situ Cell Death Detection kit; Roche), and cells were stained with DAPI (4′,6-diamidino-2-phenylindole), as previously described (Kih et al., Biomaterials 180: 67-77, 2018). Apoptotic cells were visualized under a Nikon Eclipse Ti microscope (Nikon) and quantified as the number of TUNEL-positive cells per total number of cells using ImageJ software. […]
In addition, to investigate whether tumor growth inhibition by TTPN is induced by apoptosis-inducing activity on tumor cells, tumor tissues from the treated mice were analyzed. On the 15th day after the first injection, mice were euthanized, and apoptosis of tumor tissues was analyzed using terminal deoxynucleotidyl transferase dUTP nick end labeling (TUNEL) staining.

A short description of data set [1]: In vitro stability (soluble protein in buffer over time). The data set is classed as physicochemical. On the procedure:
The stability of TTPN, DOX-TTPN and mTRAIL was investigated by measuring changes of concentration in a suitable buffer solution. […] At predetermined times, aggregated proteins were collected at 13,000 rpm for 10 minutes, and the concentration of soluble DOX-TTPN and TTPN in the supernatant was measured using absorbance in UV280.

For the next data set, the system named is PARP. Nature of the data set: Western blot of HT29 lysates: PARP. The data set is classed as cell-based, human. The following applies: HT29, 24 hours. As for the experimental part: (§3) After incubating HT29 cells with 50 nM DOX-TTPNs, DOX-FTNs, free DOX, or buffer for 24 hours, cells were lysed with radioimmunoprecipitation assay (RIPA) buffer (Cell Signaling Technology) and the concentration of proteins was measured using a DC protein assay kit (Bio-Rad). Equal amounts of proteins (30 μg) were resolved by SDS-PAGE and transferred to nitrocellulose membranes. After blocking with 5% skim milk in Tris-buffered saline containing 0.1% Tween-20 (TBST), membranes were incubated first with anti-Cl-PARP, anti-Cl-caspase-6, anti-cFLIP, anti-Bcl-xL, anti-XIAP, anti-Cl-caspase-3, or anti-GAPDH primary antibody (Cell Signaling Technology), and then with anti-mouse or anti-rabbit secondary antibodies (Sigma-Aldrich), as appropriate. Immunoreactive proteins were visualized using enhanced chemiluminescence (ECL) chemical reagents (Bio-Rad) and ChemiDoc (Bio-Rad), and were analyzed using ImageJ software.
(In general: Immunoblotting shows a protein as a band on a membrane.)

For a further data set, the system named is XIAP. Nature of the data set: Western blot of HT29 lysates: XIAP. The data set is classed as cell-based, human. The following applies: HT29, 24 hours. On the procedure: as §3
A further data set addresses T2, DR5 (Homo sapiens, UniProt O14763).
T2 construct: purchased R&D systems 631-T2-100
Put plainly: SPR binding to immobilized DR5-Fc. The following applies: 25° C. As for the experimental part:
as §1, §2

Data set [2] relates to cleaved form of caspase-3. Nature of the data set: Western blot of HT29 lysates: cleaved caspase-3. The data set is classed as cell-based, human. To be noted: HT29, 50 nM, 24 hours. On the procedure:
as §3

T1 sequence (O00220 with tags, fused parts or gaps limits assumed): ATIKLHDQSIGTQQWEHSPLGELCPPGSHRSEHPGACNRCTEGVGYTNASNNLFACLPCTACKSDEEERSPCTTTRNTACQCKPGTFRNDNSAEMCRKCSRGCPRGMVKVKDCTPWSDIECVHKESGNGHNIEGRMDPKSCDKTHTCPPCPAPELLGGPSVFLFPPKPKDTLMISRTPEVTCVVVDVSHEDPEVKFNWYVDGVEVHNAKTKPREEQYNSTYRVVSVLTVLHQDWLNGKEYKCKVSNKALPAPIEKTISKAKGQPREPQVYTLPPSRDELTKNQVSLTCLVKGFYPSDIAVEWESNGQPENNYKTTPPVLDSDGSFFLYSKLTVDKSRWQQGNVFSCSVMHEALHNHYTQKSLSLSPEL
T2 sequence (O14763 with tags, fused parts or gaps limits assumed): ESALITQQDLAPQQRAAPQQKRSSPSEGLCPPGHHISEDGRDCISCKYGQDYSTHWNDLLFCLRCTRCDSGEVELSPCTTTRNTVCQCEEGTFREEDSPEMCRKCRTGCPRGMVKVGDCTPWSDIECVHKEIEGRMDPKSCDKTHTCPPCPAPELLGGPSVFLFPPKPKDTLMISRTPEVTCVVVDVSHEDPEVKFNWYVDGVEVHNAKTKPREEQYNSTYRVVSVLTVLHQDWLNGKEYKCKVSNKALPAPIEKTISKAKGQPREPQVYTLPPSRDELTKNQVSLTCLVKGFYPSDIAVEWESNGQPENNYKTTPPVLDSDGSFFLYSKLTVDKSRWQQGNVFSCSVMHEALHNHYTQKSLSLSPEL

Regarding “TTPN: protein nanocage presenting TRAIL as natural-like homo-trimers; TRAIL 95-281 fused by linker peptide to human ferritin heavy chain”, in the data set with DR4 (DR4-Fc immobilized, 25° C.), the ka is 3.23 (±0.26) · 10^4 M^−1 · S^−1 and the kd is reported as 2.42 (±0.48) · 10^−5 s^−1. In addition, the “increased affinity compared with monomeric TRAIL” value with DR4 (for DR4 and DR5) is recorded as “up to 330 fold”. The “induction of early apoptosis” value in the data set on HT29 cells is listed as “ineffective in inducing apoptosis”. For the same substance, the TUNEL-positive tumor cells in the data set on HepG2 tumor came out at 84.4%. For the same substance, the “stability in solution” value in data set [1] (15 mg/mL in PBS buffer for 24 hours (FIG. 15)) is reported as “remarkably improved stability”. For the same substance, the “amount maintained in the soluble form” value in data set [1] (after 1 month, 10 mg/mL (FIG. 16)) is given as “more than 90%”. The “increase in PARP relative to buffer-treated controls (defined as 1)” value with PARP is recorded as 457 fold. Further, the “decrease in XIAP levels compared with buffer treatment” value in the data set with XIAP was “no significant effect”. For the same substance, in the data set with DR5, the ka is on record as 6.62 (±4.19) · 10^4 M^−1 · S^−1 and the kd is 1.49 (±1.13) · 10^−5 s^−1. Also, in data set [2], the “cleaved caspase-3 (and PARP) expression” value is “little change”.
